Assay results published in paper PMC3231483.

Legend:
[1] = target: T1, thrombin (human, UniProt P00734;P00734 328-363;364-622); test: guided mode resonance sensor (kinetic, Langmuir 1:1); 0.50 uM thrombin; ka 1.52e5 M-1s-1, kd 0.61e-1 s-1; Aptamer immobilized from 1 uM in PBS; assay buffer, salt and temperature not given in the material (Tris-HCl pH 7.4 and sodium phosphate listed as reagents); re
[2] = target: T1, thrombin; test: guided mode resonance sensor (Langmuir linear regression); 0.25-1 uM thrombin; order of magnitude only; Aptamer immobilized from 1 uM in PBS; assay buffer, salt and temperature not given in the material (Tris-HCl pH 7.4 and sodium phosphate listed as reagents); re
[3] = target: T1, thrombin; test: guided mode resonance sensor (kinetic, Langmuir 1:1); 0.25 uM thrombin; ka 2.06e5 M-1s-1, kd 1.05e-1 s-1; Aptamer immobilized from 1 uM in PBS; assay buffer, salt and temperature not given in the material (Tris-HCl pH 7.4 and sodium phosphate listed as reagents); re
[4] = target: T1, thrombin; test: guided mode resonance sensor (kinetic, Langmuir 1:1); 0.75 uM thrombin; ka 1.83e5 M-1s-1, kd 0.30e-1 s-1; Aptamer immobilized from 1 uM in PBS; assay buffer, salt and temperature not given in the material (Tris-HCl pH 7.4 and sodium phosphate listed as reagents); re
[5] = target: T1, thrombin; test: guided mode resonance sensor (kinetic, Langmuir 1:1); 1.50 uM thrombin; ka 0.20e5 M-1s-1, kd 1.33e-1 s-1; Aptamer immobilized from 1 uM in PBS; assay buffer, salt and temperature not given in the material (Tris-HCl pH 7.4 and sodium phosphate listed as reagents); re
[6] = target: T1, thrombin; test: guided mode resonance sensor (kinetic, Langmuir 1:1); 1.00 uM thrombin; ka 0.18e5 M-1s-1, kd 1.54e-1 s-1; Aptamer immobilized from 1 uM in PBS; assay buffer, salt and temperature not given in the material (Tris-HCl pH 7.4 and sodium phosphate listed as reagents); re

For AGTCCGTGGTAGGGCAGGTTGGGGTGACT (structured_DNA, 5' NH2) [29-mer thrombin aptamer (TBA)], the Ka [1] was 2.5 10^6 M^-1, the Ka [2] was ~1 10^6 M^-1 and the Ka [3] was 1.95 10^6 M^-1. For the same binder, the Ka [4] was 6.18 10^6 M^-1, the Ka [5] was 0.15 10^6 M^-1 and the Ka [6] was 0.12 10^6 M^-1.
